Publication PMC3830196, “Calmodulin-like protein AtCML3 mediates dimerization of peroxisomal processing protease AtDEG15 and contributes to normal peroxisome metabolism” (Plant Molecular Biology, 2013)

Target: T1, AtDEG15 full length (yeast two-hybrid / three-hybrid fusion) (Arabidopsis thaliana, UniProt Q8VZD4 1-709)
T1 construct: AtDEG15, peroxisomal DEG protease of Arabidopsis thaliana (At1g28320); full-length coding region; Cloned both into pBridge and pGAD424; in the Y3H the full length stood in pBridge; also called AtDEG15_pBridge; AtDEG15_pGAD424; source: yeast two-hybrid fusion (S. cerevisiae AH109)
Assay: two-hybrid; Matchmaker GAL4 system, fusions in pBridge (DNA-binding domain) and pGAD424 (activation domain), S. cerevisiae AH109; HIS3 reporter (growth on His-free medium) and lacZ reporter (beta-galactosidase, Miller units)
Settings: partners not purified

B1: AtCML3 full length (yeast two-hybrid fusion) (natural protein, Arabidopsis thaliana, UniProt Q9SRR7 1-153, looked up)
chain: MDQAELARIFQMFDRNGDGKITKQELNDSLENLGIYIPDKDLVQMIEKIDLNGDGYVDIEEFGGLYQTIMEERDEEEDMREAFNVFDQNRDGFITVEELRSVLASLGLKQGRTLEDCKRMISKVDVDGDGMVNFKEFKQMMKGGGFAALGSNL
notes: AtCML3, calmodulin-like protein of Arabidopsis thaliana (At3g07490); full-length coding region; Cloned both into pBridge and pGAD424; also called AtCML3_pGAD424; AtCML3_pBridge; source: yeast two-hybrid fusion (S. cerevisiae AH109)
  beta-galactosidase activity, fold over the negative controls: 20 fold
